Where no end group is shown, it is not given here.
Tests used:
[1] = target: gp41, the Xenopus laevis ZP3, of the vitelline envelope (Xenopus laevis)
[2] = target: dicalcin (wild type)

Kd of the concentration dependence of the inhibition of in vitro fertilization [1] [nM] | in vitro fertilization rate after pretreatment of the VE with the peptide at 4 μM, normalised to control [1] | in vitro fertilization rate after preincubation of the VE with gpp2 (concentration series, highest at 4 μM), normalised to control [2] | Binder
46 | 32 % of control |  | AALCKL (also: biotin) [dcp15, dicalcin-derived peptide]
33 | 25 % of control |  | SFSCNQKNK (also: biotin) [dcp11, dicalcin-derived peptide]
 |  | 132 % of control | RYEIINQNGCLVDGKLDDSSSAF (also: biotin) [gpp2, gp41-derived peptide]

Reference: publication PMC4525147
